Laboratory results reported in patent publication US20230348614A1 (VISTERRA, published 2023).
Where a chain is given by its changes, count along the chain named. Each block holds one binder with its values, some of them ahead of it.

How the values were obtained:
[1] = molecular target: T1, CD138 on the surface of U266 cells (CD138+ human lymphoblastic myeloma cell line) (human, UniProt P18827 23-310); test: flow cytometry on U266 cells at pH 6.0, MFI against antibody concentration (0.01-10 ug/mL)
T1 construct: whole, on cells; also called cell surface CD138; membrane CD138
T1 sequence (looked up): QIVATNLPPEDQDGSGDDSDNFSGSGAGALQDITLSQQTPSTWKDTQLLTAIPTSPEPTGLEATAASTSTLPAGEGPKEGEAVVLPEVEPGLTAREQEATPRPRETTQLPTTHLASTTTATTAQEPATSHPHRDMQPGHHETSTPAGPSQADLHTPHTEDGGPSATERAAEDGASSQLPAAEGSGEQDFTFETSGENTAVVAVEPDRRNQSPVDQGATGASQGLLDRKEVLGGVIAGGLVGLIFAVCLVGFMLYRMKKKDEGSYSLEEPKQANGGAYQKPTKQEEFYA
Procedure: (§1) Antibody binding to membrane CD138 was evaluated using the CD138+ human lymphoblastic myeloma cell line (U266) and quantified by flow cytometry. Cells were grown in RPMI1640 with 10% FBS. […] Cells were washed (1X) with same pH-matched buffer (and as throughout the experiment) followed by incubation with secondary (detection) goat anti-human Fab( Jackson Immuno Research) conjugated with Alexa Fluor-488 for 30 minutes also at either pH 6.0 or 7.4. Cells were washed once more and resuspended in matching pH buffer and evaluated by flow cytometry. Antibody cell binding was reported as geometric mean fluorescence intensity (MFI). Dose-response curves were generated using GraphPad Prism. Binding data were plotted using nonlinear regression analysis and a 4-parameter curve fit.

[2] = molecular target: T2, Biotinylated recombinant soluble human CD138 extracellular domain (Sino Biological, Cat. 11429-H08H) (human, UniProt P18827 18-251, biotin (EZ-Link NHS-SS-PEG4 Biotin) on primary amino groups of lysines, protein:biotin 1:20); test: BLI (Octet): biotinylated CD138 (10 nM) on streptavidin tips, antibody 12.5 and 25 nM, pH 6.0, 1:1 fit
T2 construct: range 18-251; Bought reagent; The limits are printed as approximate; also called biotinylated CD138; recombinant CD138
T2 sequence (looked up): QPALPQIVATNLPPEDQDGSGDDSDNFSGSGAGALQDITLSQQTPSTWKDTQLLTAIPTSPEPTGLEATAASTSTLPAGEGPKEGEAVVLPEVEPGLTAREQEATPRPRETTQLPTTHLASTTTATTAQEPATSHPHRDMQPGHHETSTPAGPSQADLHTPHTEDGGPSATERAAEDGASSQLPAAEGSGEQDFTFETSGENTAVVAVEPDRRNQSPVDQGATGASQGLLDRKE
Procedure: (§2) Binding experiments were carried using assay buffer comprised of 100 mM Sodium Phosphate+ 150 mM NaCl + 0.02% Tween-20 and adjusted to target pH of 7.4, 6.0, 6.4, or 6 using appropriate ratios of monobasic and dibasic sodium phosphate buffer. 25 nM biotinylated CD138 was loaded onto Streptavidin capture Octet (SA) tips for 120 seconds (antigen loading step) followed by antibody binding for associated for 300 seconds (association step), and subsequently dissociation for 300 seconds (dissociation step). All steps were carried out at the respective target pH using the corresponding pH adjusted buffers.
(§3) Modifications to this protocol included lowering the loading concentration of biotinylated CD138 from 25 nM to 10 nM and varying the test antibody concentrations ranging from 25 nM down to 0.8 nM (as 2-fold dilutions). The rationale for doing so was to potentially reduce any target avidity effects while also looking at the analyte concentration dependency.
(§4) Data were analyzed for purposes of calculating approximate kinetic binding parameters and apparent binding affinities based on these rates. Data was fit assuming a 1:1 binding model.

[3] = molecular target: T3, Recombinant soluble human CD138 extracellular domain (analyte in SPR) (human, UniProt P18827 23-254); test: SPR (Carterra LSA): antibody captured by anti-human IgG, CD138 as analyte, pH 6.0, 1:1 fit
T3 construct: extracellular domain; also called recombinant CD138 (the antigen)
T3 sequence (looked up): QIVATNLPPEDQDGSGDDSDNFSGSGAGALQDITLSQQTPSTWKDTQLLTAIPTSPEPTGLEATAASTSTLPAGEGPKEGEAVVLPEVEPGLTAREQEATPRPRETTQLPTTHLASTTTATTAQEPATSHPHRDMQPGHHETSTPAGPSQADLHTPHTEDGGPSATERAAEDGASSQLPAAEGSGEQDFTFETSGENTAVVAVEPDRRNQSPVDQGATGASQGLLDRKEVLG
From the text: (§5) This method as described, immobilizes the target (recombinant CD138) through biotinylation-streptavidin capture. Such a method may, in principle, lead to biases in binding due to either chemical modification of the capture ligand and/or avidity effects due to immobilization of this ligand on the biosensor. Moreover, this method depends on diffusion-based principles of dissociation leading to non-equilibrium binding states. Surface plasmon resonance is an orthogonal, commonly used method for determining binding kinetics and deriving affinity values based on these parameters. In this method, antibodies were directly coupled to the sensor chip and probed with several concentrations of recombinant CD138 (the antigen) varying from 100 nM to 41 nM. This evaluation was completed under two different pH conditions, i.e., pH 6.0 and pH […].
Antibody-CD138 binding was evaluated on a Carterra LSA high throughput SPR instrument. Binding experiments were carried out using binding buffer comprising 100 mM sodium phosphate, 150 mM NaCl and 0.05% Tween-20 buffer. Buffers were adjusted to target pH of 7.4 and 6.0, by use of sodium hydroxide or HCL, respectively. All steps were also carried out independently at these respective buffer pHs. […] Kinetic data was analysed using a global fit and assuming a 1:1 binding interaction. […]

[4] = molecular target: T3, Recombinant soluble human CD138 …; test: SPR (Carterra LSA): antibody captured by anti-human IgG, CD138 as analyte, pH 7.4, 1:1 fit
From the text: as §5
(§6) Antibody-CD138 binding was evaluated on a Carterra LSA high throughput SPR instrument. Binding experiments were carried out using binding buffer comprising 100 mM sodium phosphate, 150 mM NaCl and 0.05% Tween-20 buffer. Buffers were adjusted to target pH of 7.4 and 6.0, by use of sodium hydroxide or HCL, respectively. All steps were also carried out independently at these respective buffer pHs. Antibodies were captured on the SPR (CMDP) chip using an anti-human IgG covalently coupled to the CMDP chip based on standard protocols, as described by the instrument manufacturer, and to create a uniform lawn on the chip surface at a target 25 nM anti-CD138 antibody concentration. Binding to CD138 was achieved by uniformly passing binding analyte with increasing concentrations of CD138 (41 nM-100 nM) for 15 minutes and allowing dissociation for 20 minutes. Analyte was flowed over the chip at a rate of 2 milliliters/minute. Raw binding data were processed using kinetics data analysis software also provided by the manufacturer (Carterra) following as 2X background subtraction that used the first six injections of buffer blanks and the internal machine reference controls. Kinetic data was analysed using a global fit and assuming a 1:1 binding interaction. Further analysis of individual binding curves (sensorgrams) with best fits were used to refine the calculation of kinetic parameters.

[5] = molecular target: T1, CD138 on the surface of U266 cells …; test: flow cytometry on U266 cells at pH 6, MFI against antibody concentration (about 0.03-30 ug/mL)
Procedure: as §1
(§7) Binding was evaluated as described.

[6] = molecular target: T1, CD138 on the surface of U266 cells …; test: flow cytometry on U266 cells at pH 6.0, MFI against antibody concentration (0.04-10 ug/mL shown)
Procedure: as §1

[7] = molecular target: T3, Recombinant soluble human CD138 …; test: SPR (Carterra LSA): antibody captured by anti-human IgG, CD138 as analyte, pH 6.0, 1:1 fit; pH 6.0, SPR
From the text: as §5, §6

[8] = molecular target: T1, CD138 on the surface of U266 cells …; test: flow cytometry on U266 cells at pH 6.5, MFI against antibody concentration (about 0.03-30 ug/mL)
[9] = molecular target: T1, CD138 on the surface of U266 cells …; test: flow cytometry on U266 cells at pH 7, MFI against antibody concentration (about 0.03-30 ug/mL)
Procedure: as §1, §7

[10] = molecular target: T1, CD138 on the surface of U266 cells …; test: flow cytometry on U266 cells at pH 7.4, MFI against antibody concentration (about 0.03-30 ug/mL)
Procedure: as §1, §7

[11] = molecular target: T2, Biotinylated recombinant soluble human …; test: BLI (Octet): biotinylated CD138 (10 nM) on streptavidin tips, antibody 12.5 and 25 nM, pH 6.0, 1:1 fit; pH 6.0
Procedure: as §2, §3, §4

B1: Ab175 (antibody, V domains shown)
VH: EVQLVQSGAEVKKPGASVKVSCKASGYSFSSYYMHWVRQAPGQGLEWMGTIHPSDSTTNYNQKFQGRVTMTVDTSTRTAYMELSSLRSEDTAVYYCADFLYWGQGTTVTVSS
VL: DIVMTQTPLSLSVTPGQPASISCKSSKSLLYKDGHTYLNWFLQKPGQSPQLLIYVVSTRASGVPDRFSGSGSGTDFTLKISRVEAEDVGVYYCQQLVEYPYTFGQGTKLEIK
notes: also called mAb Ab175
EC50 (read off the curve) [1]: ~0.2 µg/mL

B2: Antibody Ab30 (antibody, V domains shown)
VH: B1 VH with S54E, L100V
VL: B1 VL with H35K
Kd [2]: 4.6 nM | koff [2]: 0.0034 s⁻¹ | kon [2]: 720000 M⁻¹ s⁻¹

B6: Antibody Ab43 (antibody, V domains shown)
VH: B1 VH with L100V
VL: B1 VL with H35K, N39L
EC50 (read off the curve) [1]: ~0.5 µg/mL | EC50 (read off the curve) [5]: ~0.6 µg/mL | EC50 (read off the curve) [9]: ~0.9 µg/mL | Kd [2]: 6.5 nM | koff [2]: 0.0041 s⁻¹ | kon [2]: 630000 M⁻¹ s⁻¹ | EC50 (read off the curve) [8]: ~0.7 µg/mL | EC50 (read off the curve) [10]: ~1 µg/mL

B7: Antibody Ab17 (antibody, V domains shown)
VH: B1 VH with L100V
VL: B1 VL
notes: also called mAb 17; Mab 17
EC50 (read off the curve) [1]: ~0.5 µg/mL | Kd [7]: 16 nM | koff [7]: 0.0026 s⁻¹ | kon [7]: 170000 M⁻¹ s⁻¹ | Kd [11]: 6.2 nM | koff [11]: 0.0051 s⁻¹ | kon [11]: 860000 M⁻¹ s⁻¹

B8: Antibody Ab137 (antibody, V domains shown)
VH: B1 VH with E1Q, D98N, L100V
VL: B1 VL with H35K, Y54D
EC50 (read off the curve) [5]: ~0.4 µg/mL | Kd [7]: 16 nM | koff [7]: 0.0029 s⁻¹ | kon [7]: 180000 M⁻¹ s⁻¹ | EC50 (read off the curve) [8]: ~0.7 µg/mL | Kd [11]: 2.9 nM | koff [11]: 0.003 s⁻¹ | kon [11]: 1e+06 M⁻¹ s⁻¹

B9: Antibody Ab28 (antibody, V domains shown)
VH: B1 VH with H52Y, S54G, L100V
VL: B1 VL with H35K
notes: also called Mab 28
EC50 (read off the curve) [1]: ~0.7 µg/mL | EC50 (read off the curve) [5]: ~0.5 µg/mL | Kd [7]: 12 nM | koff [7]: 0.0026 s⁻¹ | kon [7]: 220000 M⁻¹ s⁻¹ | EC50 (read off the curve) [8]: ~0.8 µg/mL | Kd [11]: 4 nM | koff [11]: 0.0045 s⁻¹ | kon [11]: 1.2e+06 M⁻¹ s⁻¹

More lines, now with the values ahead:

EC50 (read off the curve) [1]: ~1 µg/mL | Kd [2]: 6.4 nM | koff [2]: 0.0036 s⁻¹ | kon [2]: 560000 M⁻¹ s⁻¹
B3: Antibody Ab32 (antibody, V domains shown)
VH: B1 VH
VL: B1 VL with H35K

koff [3]: 0.0018 s⁻¹ | kon [3]: 300000 M⁻¹ s⁻¹ | Kd [4]: 21 nM | koff [4]: 0.00028 s⁻¹ | kon [4]: 10000 M⁻¹ s⁻¹ | Kd [2]: 0.98 nM | koff [2]: 0.0011 s⁻¹ | kon [2]: 1.2e+06 M⁻¹ s⁻¹
B4: Antibody Ab71 (antibody, V domains shown)
VH: B1 VH with E1Q, T50D, D98N, L100V
VL: B1 VL with H35K

EC50 (read off the curve) [5]: ~0.6 µg/mL | EC50 (read off the curve) [6]: ~0.6 µg/mL | Kd [7]: 28 nM | koff [7]: 0.0042 s⁻¹ | kon [7]: 150000 M⁻¹ s⁻¹ | EC50 (read off the curve) [8]: ~0.9 µg/mL
B5: Antibody 29-0 (antibody, V domains shown)
VH: B1 VH with H52Y, S54G, D55A, L100V
VL: B1 VL with H35K
notes: also called mAb 29-0
